Reference: paper PMC5062973 (Nucleic Acids Research, 2016)
Each block holds one binder with its values, some of them ahead of it.

Molecular target: T1, M. jannaschii Nop5 (amino acids 1-367) (M. jannaschii, UniProt Q58105 1-367)
T1 sequence (looked up): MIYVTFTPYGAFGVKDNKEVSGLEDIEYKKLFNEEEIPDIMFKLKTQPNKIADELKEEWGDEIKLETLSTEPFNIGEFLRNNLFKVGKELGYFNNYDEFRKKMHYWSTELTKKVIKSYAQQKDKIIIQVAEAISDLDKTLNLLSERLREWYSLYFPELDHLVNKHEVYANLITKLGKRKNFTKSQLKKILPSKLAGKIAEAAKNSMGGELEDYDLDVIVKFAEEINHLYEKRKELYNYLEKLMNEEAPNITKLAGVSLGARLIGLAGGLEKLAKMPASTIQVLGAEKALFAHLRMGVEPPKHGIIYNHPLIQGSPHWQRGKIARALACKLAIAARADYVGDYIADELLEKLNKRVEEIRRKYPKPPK
Assay: SEC

binding result: binds
B1: M. jannaschii L7Ae (natural protein)
chain: not shown

binding result: binds
B2: M. jannaschii fibrillarin with a N-terminal FLAG-tag (enzyme, UniProt Q58108 1-230, looked up)
chain: MEDIKIKEIFENIYEVDLGDGLKRIATKSIVKGKKVYDEKIIKIGDEEYRIWNPNKSKLAAAIIKGLKVMPIKRDSKILYLGASAGTTPSHVADIADKGIVYAIEYAPRIMRELLDACAERENIIPILGDANKPQEYANIVEKVDVIYEDVAQPNQAEILIKNAKWFLKKGGYGMIAIKARSIDVTKDPKEIFKEQKEILEAGGFKIVDEVDIEPFEKDHVMFVGIWEGK
